The target in this assay is microtubules of cultured mouse hippocampal neurons (mouse (endogenous in cultured hippocampal neurons)) (UniProt P68369). As to the kind of experiment: immunostaining of cells or tissue.

Data on 1 substance can be found in paper PMC2172855.

As to “tailless KIF5B G234A::YFP (from UniProt Q61768 1-761) (domain or fragment)”, the fluorescence ratio of rigor-KIF5::GFP to tubulin staining, in axons turned out to be 1.2 and the fluorescence ratio of rigor-KIF5::GFP to tubulin staining, in dendrites worked out at 0.5.
